Source: patent US20210032299A1 (Eli Lilly, published 2021)
Starred links: 1 amine or outer side, 2 acyl side, 3 side chain; linkers in the order of their positions; H or OH if unused. Non-standard residues stand in square brackets, D forms with d. Groups on a side chain read outwards from the residue. No end group written: not given here. *: point of attachment. C20 diacid = O=C(O)CCCCCCCCCCCCCCCCCCC(=O)*; γGlu = O=C(O)[C@H](CCC(=O)[*:2])N[*:1]; αMeF = C[C@](N)(Cc1ccccc1)C(=O)O; 4Pal = N[C@@H](Cc1ccncc1)C(=O)O; αMeL = CC(C)C[C@](C)(N)C(=O)O; AEEA = NCCOCCOCC(=O)O; Aib = CC(C)(N)C(=O)O

How the values were obtained:
Assay in all cases: cell-based or functional assay
[1] = target: T1, human glucose-dependent insulinotropic peptide receptor (human, UniProt P48546 22-466)
T1 sequence (looked up): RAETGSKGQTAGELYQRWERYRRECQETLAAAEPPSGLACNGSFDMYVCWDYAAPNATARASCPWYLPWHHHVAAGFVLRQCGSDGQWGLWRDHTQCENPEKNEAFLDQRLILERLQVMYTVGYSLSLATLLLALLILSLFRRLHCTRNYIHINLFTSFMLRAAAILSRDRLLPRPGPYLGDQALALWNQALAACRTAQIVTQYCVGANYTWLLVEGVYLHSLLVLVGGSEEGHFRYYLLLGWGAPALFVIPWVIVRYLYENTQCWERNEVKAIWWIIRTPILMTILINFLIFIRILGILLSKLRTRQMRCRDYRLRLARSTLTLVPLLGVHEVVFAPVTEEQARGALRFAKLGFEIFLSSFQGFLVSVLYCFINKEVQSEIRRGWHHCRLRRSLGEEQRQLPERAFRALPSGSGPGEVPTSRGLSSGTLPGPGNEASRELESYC

human GLP-1 receptor = human GLP-1 receptor (human, UniProt P43220 24-463)
human glucagon receptor = human glucagon receptor (human, UniProt P47871 26-477)
Sequence of human glucagon receptor (P47871 26-477): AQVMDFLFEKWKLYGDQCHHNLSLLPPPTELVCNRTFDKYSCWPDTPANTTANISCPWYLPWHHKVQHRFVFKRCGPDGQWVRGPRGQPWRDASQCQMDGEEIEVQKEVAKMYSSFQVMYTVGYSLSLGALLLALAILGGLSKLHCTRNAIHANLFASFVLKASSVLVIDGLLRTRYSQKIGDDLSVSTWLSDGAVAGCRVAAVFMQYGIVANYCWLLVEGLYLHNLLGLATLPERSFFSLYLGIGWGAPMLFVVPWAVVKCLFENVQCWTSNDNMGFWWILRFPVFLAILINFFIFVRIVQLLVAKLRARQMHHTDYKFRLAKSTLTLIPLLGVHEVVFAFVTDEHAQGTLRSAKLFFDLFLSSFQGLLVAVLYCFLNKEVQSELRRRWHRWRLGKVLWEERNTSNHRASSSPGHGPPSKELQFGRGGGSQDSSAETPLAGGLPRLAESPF

Row | Binder | hGIPR cAMP Rel EC50 [1] | hGLP1R cAMP Rel EC50 (human GLP-1 receptor) | hGcgR cAMP Rel EC50 (human glucagon receptor)
1 | Y[Aib]EGTFISDYSI[αMeL]LDKK([AEEA-AEEA-γGlu-C20 diacid])HQ[Aib]D[αMeF]VE[4Pal]LLAGGPSSGAPPPS-NH2 (N-terminus assumed; SMILES CC[C@H](C)[C@H](NC(=O)[C@H](Cc1ccccc1)NC(=O)[C@@H](NC(=O)CNC(=O)[C@H](CCC(=O)O)NC(=O)C(C)(C)NC(=O)[C@@H](N)Cc1ccc(O)cc1)[C@@H](C)O)C(=O)N[C@@H](CO)C(=O)N[C@@H](CC(=O)O)C(=O)N[C@@H](Cc1ccc(O)cc1)C(=O)N[C@@H](CO)C(=O)N[C@H](C(=O)N[C@@](C)(CC(C)C)C(=O)N[C@@H](CC(C)C)C(=O)N[C@@H](CC(=O)O)C(=O)N[C@@H](CCCCN)C(=O)N[C@@H](CCCCNC(=O)COCCOCCNC(=O)COCCOCCNC(=O)CC[C@H](NC(=O)CCCCCCCCCCCCCCCCCCC(=O)O)C(=O)O)C(=O)N[C@@H](Cc1c[nH]cn1)C(=O)N[C@@H](CCC(N)=O)C(=O)NC(C)(C)C(=O)N[C@@H](CC(=O)O)C(=O)N[C@@](C)(Cc1ccccc1)C(=O)N[C@H](C(=O)N[C@@H](CCC(=O)O)C(=O)N[C@@H](Cc1ccncc1)C(=O)N[C@@H](CC(C)C)C(=O)N[C@@H](CC(C)C)C(=O)N[C@@H](C)C(=O)NCC(=O)NCC(=O)N1CCC[C@H]1C(=O)N[C@@H](CO)C(=O)N[C@@H](CO)C(=O)NCC(=O)N[C@@H](C)C(=O)N1CCC[C@H]1C(=O)N1CCC[C@H]1C(=O)N1CCC[C@H]1C(=O)N[C@@H](CO)C(N)=O)C(C)C)[C@@H](C)CC) [Example 56] | 0.0169 nM | > 5000 nM | > 5000 nM
2 | Y[Aib]EGTFISDYSI[αMeL]LDKK([AEEA-AEEA-γGlu-C20 diacid])HQ[Aib]EFVE[4Pal]LLATGPSSGAPPPS-NH2 (N-terminus assumed; SMILES CC[C@H](C)[C@H](NC(=O)[C@H](Cc1ccccc1)NC(=O)[C@@H](NC(=O)CNC(=O)[C@H](CCC(=O)O)NC(=O)C(C)(C)NC(=O)[C@@H](N)Cc1ccc(O)cc1)[C@@H](C)O)C(=O)N[C@@H](CO)C(=O)N[C@@H](CC(=O)O)C(=O)N[C@@H](Cc1ccc(O)cc1)C(=O)N[C@@H](CO)C(=O)N[C@H](C(=O)N[C@@](C)(CC(C)C)C(=O)N[C@@H](CC(C)C)C(=O)N[C@@H](CC(=O)O)C(=O)N[C@@H](CCCCN)C(=O)N[C@@H](CCCCNC(=O)COCCOCCNC(=O)COCCOCCNC(=O)CC[C@H](NC(=O)CCCCCCCCCCCCCCCCCCC(=O)O)C(=O)O)C(=O)N[C@@H](Cc1c[nH]cn1)C(=O)N[C@@H](CCC(N)=O)C(=O)NC(C)(C)C(=O)N[C@@H](CCC(=O)O)C(=O)N[C@@H](Cc1ccccc1)C(=O)N[C@H](C(=O)N[C@@H](CCC(=O)O)C(=O)N[C@@H](Cc1ccncc1)C(=O)N[C@@H](CC(C)C)C(=O)N[C@@H](CC(C)C)C(=O)N[C@@H](C)C(=O)N[C@H](C(=O)NCC(=O)N1CCC[C@H]1C(=O)N[C@@H](CO)C(=O)N[C@@H](CO)C(=O)NCC(=O)N[C@@H](C)C(=O)N1CCC[C@H]1C(=O)N1CCC[C@H]1C(=O)N1CCC[C@H]1C(=O)N[C@@H](CO)C(N)=O)[C@@H](C)O)C(C)C)[C@@H](C)CC) [Example 58] | 0.0183 nM | > 5000 nM | > 5000 nM
3 | YXEGTXISDYSIXLDKKHQXDFVEXLLAGGPSSGAPPPS (Aib2; Iva6; αMeL13; K17((2-[2-(2-Amino-ethoxy)-ethoxy]-acetyl)2-(γ-Glu)-CO-(CH2)18-CO2H); Aib20; 4-Pal25; C-terminal amide) [Example 55] | 0.017 nM | > 5000 nM | > 5000 nM
4 | Y[Aib]EGTFISDYSI[αMeL]LDKK([AEEA-AEEA-γGlu-C20 diacid])HQ[Aib]EFVE[4Pal]LLAQGPSSGAPPPS-NH2 (N-terminus assumed; SMILES CC[C@H](C)[C@H](NC(=O)[C@H](Cc1ccccc1)NC(=O)[C@@H](NC(=O)CNC(=O)[C@H](CCC(=O)O)NC(=O)C(C)(C)NC(=O)[C@@H](N)Cc1ccc(O)cc1)[C@@H](C)O)C(=O)N[C@@H](CO)C(=O)N[C@@H](CC(=O)O)C(=O)N[C@@H](Cc1ccc(O)cc1)C(=O)N[C@@H](CO)C(=O)N[C@H](C(=O)N[C@@](C)(CC(C)C)C(=O)N[C@@H](CC(C)C)C(=O)N[C@@H](CC(=O)O)C(=O)N[C@@H](CCCCN)C(=O)N[C@@H](CCCCNC(=O)COCCOCCNC(=O)COCCOCCNC(=O)CC[C@H](NC(=O)CCCCCCCCCCCCCCCCCCC(=O)O)C(=O)O)C(=O)N[C@@H](Cc1c[nH]cn1)C(=O)N[C@@H](CCC(N)=O)C(=O)NC(C)(C)C(=O)N[C@@H](CCC(=O)O)C(=O)N[C@@H](Cc1ccccc1)C(=O)N[C@H](C(=O)N[C@@H](CCC(=O)O)C(=O)N[C@@H](Cc1ccncc1)C(=O)N[C@@H](CC(C)C)C(=O)N[C@@H](CC(C)C)C(=O)N[C@@H](C)C(=O)N[C@@H](CCC(N)=O)C(=O)NCC(=O)N1CCC[C@H]1C(=O)N[C@@H](CO)C(=O)N[C@@H](CO)C(=O)NCC(=O)N[C@@H](C)C(=O)N1CCC[C@H]1C(=O)N1CCC[C@H]1C(=O)N1CCC[C@H]1C(=O)N[C@@H](CO)C(N)=O)C(C)C)[C@@H](C)CC) [Example 57] | 0.0177 nM | > 5000 nM | 886 nM
5 | Y[Aib]EGTFISDYSI[αMeL]LDKK([AEEA-AEEA-γGlu-C20 diacid])HQ[Aib]EFVE[4Pal]LLAAGPSSGAPPPS-NH2 (N-terminus assumed; SMILES CC[C@H](C)[C@H](NC(=O)[C@H](Cc1ccccc1)NC(=O)[C@@H](NC(=O)CNC(=O)[C@H](CCC(=O)O)NC(=O)C(C)(C)NC(=O)[C@@H](N)Cc1ccc(O)cc1)[C@@H](C)O)C(=O)N[C@@H](CO)C(=O)N[C@@H](CC(=O)O)C(=O)N[C@@H](Cc1ccc(O)cc1)C(=O)N[C@@H](CO)C(=O)N[C@H](C(=O)N[C@@](C)(CC(C)C)C(=O)N[C@@H](CC(C)C)C(=O)N[C@@H](CC(=O)O)C(=O)N[C@@H](CCCCN)C(=O)N[C@@H](CCCCNC(=O)COCCOCCNC(=O)COCCOCCNC(=O)CC[C@H](NC(=O)CCCCCCCCCCCCCCCCCCC(=O)O)C(=O)O)C(=O)N[C@@H](Cc1c[nH]cn1)C(=O)N[C@@H](CCC(N)=O)C(=O)NC(C)(C)C(=O)N[C@@H](CCC(=O)O)C(=O)N[C@@H](Cc1ccccc1)C(=O)N[C@H](C(=O)N[C@@H](CCC(=O)O)C(=O)N[C@@H](Cc1ccncc1)C(=O)N[C@@H](CC(C)C)C(=O)N[C@@H](CC(C)C)C(=O)N[C@@H](C)C(=O)N[C@@H](C)C(=O)NCC(=O)N1CCC[C@H]1C(=O)N[C@@H](CO)C(=O)N[C@@H](CO)C(=O)NCC(=O)N[C@@H](C)C(=O)N1CCC[C@H]1C(=O)N1CCC[C@H]1C(=O)N1CCC[C@H]1C(=O)N[C@@H](CO)C(N)=O)C(C)C)[C@@H](C)CC) [Example 59] | 0.0202 nM | > 5000 nM | > 5000 nM
